Positions count from the first letter of the chain named. Names and notes keep the numbering of the source. Where two headings read alike, the source gives them in different places. Values belong to the binder of their own block, whether it stands above or below them.
Columns and labels:
Test in all cases: BIAcore
[1] = biological target: T1, Recombinant human IL-17A/F heterodimer (UniProt Q16552 24-155; Q96PD4 31-163)
[2] = biological target: T2, Human IL-17F (R&D Systems, cat #1335-IL-025/CF) (UniProt Q96PD4 31-163)
T2 chain: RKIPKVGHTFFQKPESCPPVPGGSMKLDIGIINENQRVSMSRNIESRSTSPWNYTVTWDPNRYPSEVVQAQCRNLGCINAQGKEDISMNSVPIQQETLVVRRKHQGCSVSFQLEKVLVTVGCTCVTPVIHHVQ

[3] = biological target: T3, Human IL-17A (R&D Systems, cat #317-IL-050/CF) (UniProt Q16552 20-155)
[4] = biological target: T1, Recombinant human IL-17A/F heterodimer; remark: listed apart in the source
[5] = biological target: T2, Human IL-17F (R&D Systems, cat …)
[6] = biological target: T3, Human IL-17A (R&D Systems, cat …); remark: listed apart in the source
[7] = biological target: T2, Human IL-17F (R&D Systems, cat …)
cyno IL17F [8] = biological target: cyno IL17F
cyno IL17F [9] = biological target: cyno IL17F; remark: listed apart in the source
[10] = biological target: T1, Recombinant human IL-17A/F heterodimer; remark: listed apart in the source
[11] = biological target: T3, Human IL-17A (R&D Systems, cat …); remark: listed apart in the source
rhesus IL17A (PUR17200) = biological target: rhesus IL17A (PUR17200)
Bi-specific = biological target: Bi-specific
[12] = biological target: T2, Human IL-17F (R&D Systems, cat …)

T3 sequence (Q16552 20-155): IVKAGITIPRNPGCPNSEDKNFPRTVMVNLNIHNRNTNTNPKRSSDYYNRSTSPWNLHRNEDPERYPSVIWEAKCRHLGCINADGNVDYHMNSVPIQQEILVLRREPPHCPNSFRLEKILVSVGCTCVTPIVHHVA

B2: YW278.15.3 (antibody, V domains shown)
VH: EVQLVESGGGLVQPGGSLRLSCAASGFTFTDYDISWVRQAPGKGLEWVASISPSDGYTYYADSVKGRFTISADTSKNTAYLQMNSLRAEDTAVYYCARYLYWSYVMDYWGQGTLVTVSS
VL: DIQMTQSPSSLSASVGDRVTITCRASQVISSSLAWYQQKPGKAPKLLIYGASFFYSGVPSRFSGSGSGTDFTLTISSLQPEDFATYYCQQHNDLPLTFGQGTKVEIKR
Kd [1]: 0.0935 nM
Kd [2]: 0.115 nM
Kd [3]: 0.0242 nM
Kd [4]: 0.0167 nM
Kd [5]: 0.0283 nM
Kd [6]: 0.0152 nM

B5: YW278.15.2 (antibody, V domains shown)
VH: B2 VH with T28S, T30I, S54Y
VL: DIQMTQSPSSLSASVGDRVTITCRASQDVSTAVAWYQQKPGKAPKLLIYSASFLYSGVPSRFSGSGSGTDFTLTISSLQPEDFATYYCQQYYIYPATFGQGTKVEIKR
Kd (cyno IL17F [8]): 0.209 nM
Kd [4]: 0.0104 nM
Kd [5]: 0.0315 nM
Kd [6]: 0.0111 nM

B6: YW278.15.2.D54E (antibody, V domains shown)
VH: B2 VH with T28S, T30I, S54Y, D55E
VL: B5 VL
Kd [2]: 0.012 nM

B8: IL17F (ligand)
chain: T2 chain
Kd (Bi-specific): 0.71 nM

B11: YW265.01 (antibody, V domains shown)
VL: B2 VL with V28S, S32Y, F53S, F54R, Y55A, H91Y, N92Y, D93S, L94S
VH: EVQLVESGGGLVQPGGSLRLSCAASGYSFTSPYISWVRQAPGKGLEWVASIFYYSGATDYADSVKGRFTISADTSKNTAYLQMNSLRAEDTAVYYCARGGYGYNQWFYSIYQSYFDYWGQ
Kd [12]: 0.62 nM

Now from value to binder:

Kd [1]: 0.0229 nM
Kd [2]: 0.0181 nM
Kd [3]: 0.0155 nM
B1: YW278.15.9 (antibody, V domains shown)
VH: B2 VH with S52D, S54Y, D55E
VL: B5 VL with Y91S, Y92Q, I93N, Y94P, P95Q, A96T

Kd [7]: 0.019 nM
B3: YW278.15.18.C55S (antibody, V domains shown)
VH: B2 VH with S54P, G56S
VL: B5 VL with Y91S, I93T, Y94A, P95K, A96L

Kd [7]: 0.0186 nM
B4: YW278.15.18.C55A (antibody, V domains shown)
VH: B2 VH with S54P, G56A
VL: B5 VL with Y91S, I93T, Y94A, P95K, A96L

Kd (cyno IL17F [9]): 0.0861 nM
Kd (cyno IL17F [8]): 0.0632 nM
Kd [10]: 0.0225 nM
Kd [7]: 0.0291 nM
Kd [11]: 0.0189 nM
Kd (rhesus IL17A (PUR17200)): 0.0381 nM
Kd [4]: 0.014 nM
Kd [5]: 0.0135 nM
Kd [6]: 0.0137 nM
B7: YW278.15.18 (antibody, V domains shown)
VH: B2 VH with S54P, G56C
VL: B5 VL with Y91S, I93T, Y94A, P95K, A96L

Kd [2]: 1.59 nM
B9: YW279.1.20 (antibody, V domains shown)
VH: EVQLVESGGGLVQPGGSLRLSCAASGFSFTSYMMSWVRQAPGKGLEWVSTIYPESGATDYADSVKGRFTISADTSKNTAYLQMNSLRAEDTAVYYCAREGYYYSTSIKYYPWFDYWGQGTLVTVSS
VL: DIQMTQSPSSLSASVGDRVTITCRASQRIKRYLAWYQQKPGKAPKLLIYGASSRASGVPSRFSGSGSGTDFTLTISSLQPEDFATYYCQQRFSQHITFGQGTKVEIKR

Kd [1]: 0.69 nM
Kd [2]: 1.76 nM
Kd [3]: 0.118 nM
B10: YW279.1.22 (antibody, V domains shown)
VH: B9 VH with T30P, M33F, M34I, T50M, E54V, D59V
VL: B9 VL with R28S, K30S, R31S, F92Y, Q94L, H95P

Kd [1]: 11.8 nM
Kd [2]: 0.0823 nM
Kd [3]: 5.09 nM
B12: YW279.1.21 (antibody, V domains shown)
VH: B9 VH
VL: B9 VL with R28S, K30S, R31S, F92Y, Q94W, I96T

Source: patent US20100055103A1 (published 2010)
